# Source: US20160040133A1 (published 2016)
# B1: PAZ domain of Arabidopsis Dicer-like protein 1 (DCL1) (pBD-GAL4 fusion, yeast two-hybrid bait) (other)
# chain: MKLLSSIEQACDICRLKKLKCSKEKPKCAKCLKNNWECRYSPKTKRSPLTRAHLTEVESRLERLEQLFLLIFPREDLDMILKMDSLQDIKALLTGLFVQDNVNKDAVTDRLASVETDMPLTLRQHRISATSSSEESSNKGQRQLTVSEVEEDLSKGKLMMADGCMVAEDLIGKIVTAAHSGKRFYVDSICYDMSAETSFPRKEGYLGPLEYNTYADYYKQKYGVDLNCKQQPLIKGRGVSYCKNLLSPRFEQSGESETVLDKTYYVFLPPELCVVHP
# notes: domain: BD;domain: PAZ domain; PAZ domain amplified by PCR and inserted into SalI and PstI digested pBD-GAL4 cam; also called DCL1-PAZ; PAZ domain of DCL1
# Target: T1, B2 C-9ASM (pAD-GAL4 fusion, yeast two-hybrid prey) (flock house virus)
# T1 construct: Carries 9 alanine substitutions at the C-terminus; also called FHV B2 c-9ASM
# Test: yeast two-hybrid (Table 1: colony -, β-GAL White)
binder,measurement,value
B1,binding result,no binding
